In publication PMC5973781:

Molecular target: mouse ANKRD16^3xArg (recombinant) (mouse) (UniProt A2AS55)
Experiment: SwitchSENSE

fold change in affinity against wild type ANKRD16: 2 fold
Substance: mouse AlaRS^A734E (recombinant, SwitchSENSE and biochemical assays) (from UniProt Q8BGQ7 1-968) (enzyme)
